{
  "source": "patent US20180346588A1",
  "about": "(MOGAM INSTITUTE FOR BIOMEDICAL RESEARCH, published 2018)",
  "binders": {"B1": {"name": "clone 56-C2G4 antibody (antibody, V domains shown)", "VH": "EVQLLESGGGLVQPGGSLRLSCAASGFTFSNYAMSWVRQAPGKGLEWVSGIPPDSASKYYADSVRGRFTVSRDNSKNTLYLQMNSLRAEDTAVYYCAKNMLSFDYWGQGTLVTVSS", "VL": "QSVLTQPPSASGTPGQRVTISCTGSSSNIGSNAVSWYQQLPGTAPKLLIYYNSKRPSGVPDRFSGSKSGTSASLAISGLRSEDEADYYCGSWDPSLNGYVFGGGTKVTVLG", "notes": "IgG (human IgG1 heavy chain constant region; light chain constant region said to be human kappa)"}, "B2": {"name": "clone 2-30 (MS502 heavy chain variable region mutation antibody) (antibody, V domains shown)", "VH": "B1 VH with A56N, L101R, S102T", "VL": "B1 VL with P94S", "notes": "SPR done with IgG (human heavy chain constant region vector, MS502 light chain)"}, "B3": {"name": "clone 2-78-C2G4 antibody (antibody, V domains shown)", "VH": "B1 VH with A56G, L101F", "VL": "B1 VL", "notes": "as for B1"}, "B4": {"name": "clone 56 (MS502 heavy chain variable region mutation antibody) (antibody, V domains shown)", "VH": "B1 VH", "VL": "B1 VL with P94S", "notes": "as for B2"}, "B5": {"name": "clone 2-30-C2G4 antibody (antibody, V domains shown)", "VH": "B1 VH with A56N, L101R, S102T", "VL": "B1 VL", "notes": "as for B1"}, "B6": {"name": "clone 2-73-C2G4 antibody (antibody, V domains shown)", "VH": "B1 VH with D54N, A56D", "VL": "B1 VL", "notes": "as for B1"}, "B7": {"name": "clone 2-78 (MS502 heavy chain variable region mutation antibody) (antibody, V domains shown)", "VH": "B1 VH with A56G, L101F", "VL": "B1 VL with P94S", "notes": "as for B2"}, "B8": {"name": "clone MS502 anti-MSLN antibody (antibody, V domains shown)", "VH": "B1 VH with A56G", "VL": "B1 VL with P94S", "notes": "SPR and FACS done with IgG: human IgG1 heavy chain constant region"}, "B9": {"name": "clone MI323 anti-MSLN antibody (antibody, V domains shown)", "VH": "EVQLQQSGPELVKPGTSVKISCKASGYSFTSYFIQWVKQRPGQGLEWIGWIFPGSGNTKYNEMFKGKATLAADTSSSTAYMQLSSLTSEDSAVYFCARSGGYQYYFDYWGQGTSVTVSS", "VL": "DIVMTQSHKFMSTSVGDRVSITCKASQDVSTAVAWYQQKPGQSPKLLIYSASYRYPGVPDRFTGSGSGTDFTFTISSVQAEDLALYYCQQHYSTPWTFGGGTKLEIKR", "notes": "also called M1323"}, "B10": {"name": "clone MI329 anti-MSLN antibody (antibody, V domains shown)", "VH": "EVMLVESGGDLVKPGGSLKLSCAASGFTFSSYAMSWVRRTPEKRLEWVATINSDGSYTFYPDSVKGRFTISRDNAKNTLYLQMNSLRSEDTAMYYCARWGENWYFDVWGAGTTVTVSS", "VL": "DVVMTQTPLSLPVSLGDQASISCRSSQSLVHSNGNTYLHWYLQKPGQSPKLLIYKVSNRFSGVPDRFSGSGSGTDFTLKISRVEAEDLGIYFCSQSTHFPRTFGGATKLELKR", "notes": "also called M1329"}, "B11": {"name": "clone MI403 anti-MSLN antibody (antibody, V domains shown)", "VH": "EVQVVESGGGLVKPGGSLKLSCAASGFAFSSYDMSWVRQTPEKRLEWVAYISSGGGSTYYPDTVKGRFTISRDNAKNTLYLQMNSLKSEDTAMYYCARQGTAVKNYWYFDVWGAGTSVTVSS", "VL": "DIVMTQSPASLAVSLGQRATISCRASQSVSTSSSSYVHWYQQRPGQPPKLLIKYASNLESGVPARFSGSGSGTDFTLNIHPVEEEDTGTYYCQHSWEIPFTFGSGTKLEIKR", "notes": "also called M1403"}, "B12": {"name": "clone MS501 anti-MSLN antibody (antibody, V domains shown)", "VH": "B1 VH with P52Y, A56G, K58T, R65K, V70I, K98R, M100I, L101Y, S102T", "VL": "B1 VL with T23S, S53N, K54Q, P94S, N97S, V107L", "notes": "From a phage display synthetic scFv library"}, "B13": {"name": "clone MS504 anti-MSLN antibody (antibody, IgG1, V domains shown)", "VH": "B1 VH with G50S, P52Y, D54N, S55G, A56S, R65K, V70I, T91M, M100L, S102T", "VL": "B1 VL with T13P, S31N, A33S, N52D, K54H, S77G, S91A, P94D, G98A, V107L", "notes": "as for B12"}, "B14": {"name": "clone MS506 anti-MSLN antibody (antibody, IgG1, V domains shown)", "VH": "EVQLLESGGGLVQPGGSLRLSCAASGFTFSNYAMSWVRQAPGKGLEWVSSIYPGSGSTYYADSVKGRFTISRDNSKNTLYLQMNSLRAEDTAVYYCARNLYTFDYWGQGTLVTVSS", "VL": "B1 VL with S35T, N52D, K54H, L79P, S91A, P94S, N97S, G98A, V107L", "notes": "as for B12"}, "B15": {"name": "clone MS503 anti-MSLN antibody (antibody, IgG1, V domains shown)", "VH": "B14 VH with S55D, R98K, L100A, Y101F", "VL": "B1 VL with T23S, K54H, S91T, P94S, N97S, V107L", "notes": "as for B12"}, "B16": {"name": "clone MS502-1 anti-MSLN antibody (antibody, V domains shown)", "VH": "B1 VH with A56G", "VL": "B1 VL with T23I, G24C, P94S, V107L"}, "B17": {"name": "clone MS505 anti-MSLN antibody (antibody, IgG1, V domains shown)", "VH": "B14 VH with S50A, G54D, S55G, G56S, S57N, T58K, I70V, L100A", "VL": "B1 VL with Q16R, T23S, K54Q, P94S, V107L", "notes": "as for B12"}, "B18": {"name": "clone MI407 anti-MSLN antibody (antibody, V domains shown)", "VH": "EVKLVESGGGLVKPGGSLKLSCAASGFPFSNYDMSWVRQTPEKRLEWVAYISSGGGNTYYPDTVKGRFTISRDNAKNTLYLQMSSLKSEDTALYFCVRQGTSVESYWYFDVWGAGTTVTVSS", "VL": "B11 VL with M4L, V37I, R43K, E85D, G88A, K107E", "notes": "also called M1407"}},
  "note": "Changes are numbered by the printed parent chain.",
  "data": [
    {"target": "T1, recombinant human mesothelin (MSLN) (human, UniProt Q13421 296-580, limits assumed)", "T1 construct": "also called human MSLN; recombinant human MSLN", "T1 sequence (Q13421 other isoform, or with tags, fused parts or gaps limits assumed)": "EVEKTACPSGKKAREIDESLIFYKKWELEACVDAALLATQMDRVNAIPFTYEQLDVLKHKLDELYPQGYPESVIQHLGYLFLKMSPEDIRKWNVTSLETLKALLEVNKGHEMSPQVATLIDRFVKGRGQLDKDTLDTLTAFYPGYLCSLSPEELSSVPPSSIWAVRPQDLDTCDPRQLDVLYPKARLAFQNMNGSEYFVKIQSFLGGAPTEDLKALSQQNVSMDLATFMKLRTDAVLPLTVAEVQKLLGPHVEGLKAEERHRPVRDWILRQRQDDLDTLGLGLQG", "assay": "SPR, Biacore T-200; MSLN amine-coupled to CM5 chip, IgG in flow", "procedure": "The quantitative binding force (affinity) of each of the purified anti-MSLN antibodies, i.e., MS502 clone heavy chain variable region mutation antibodies 56, 2-30, 2-73, 2-78, and the combination antibodies of the C2G4 light chain variable region and the heavy chain variable region mutation antibodies including 56-C2G4, 2-30-C2G4, 2-73-C2G4, 2-78-C2G4 with regard to recombinant human mesothelin (MSLN) was measured by using a Biacore T-200 (GE Healthcare, U.S.A.) biosensor. […] Then, the clone 56 antibody, the clone 2-30 antibody, the clone 2-73 antibody, the clone 2-78 antibody, the clone 56-C2G4 antibody, the clone 2-30-C2G4 antibody, the clone 2-73-C2G4 antibody, and the clone 2-78-C2G4 antibody serially diluted with HBS-EP buffer (10 mM HEPES, pH7.4, 150 mM NaCl, 3 mM EDTA, 0.005% surfactant P20) were allowed to flow at a concentration range of 0.078 nM to 5 nM and at a flow rate of 30 μL/min for association of 120 seconds and dissociation of 1800 seconds. The dissociation of the antibody bound to the MSLN was induced by flowing 10 mM Glycine-HCl pH 1.5 at a flow rate of 30 μL/min for 30 seconds (Table 17). The affinity was obtained as movement speed constants (Kₒₙ and Koff) and an equilibrium dissociation constant (KD) by using a Biacore T-200 evaluation software (Table 18).", "units": {"Kd": "nM"}, "values": [
      {"binder": "B1", "Kd": 0.163},
      {"binder": "B2", "Kd": 0.166},
      {"binder": "B3", "Kd": 0.0372},
      {"binder": "B4", "Kd": 0.125},
      {"binder": "B5", "Kd": 0.234},
      {"binder": "B6", "Kd": 0.165},
      {"binder": "B7", "Kd": 0.0163}
    ]},
    {"target": "T2, human mesothelin (MSLN) on the cell surface (human, UniProt Q13421 296-598)", "T2 construct": "also called MSLN of mesothelioma (H226, H2052) and pancreatic cancer (AsPC-1) cell lines; MSLN on MiaPaCa-MSLN #2 cells", "T2 sequence (Q13421 other isoform, or with tags, fused parts or gaps limits assumed)": "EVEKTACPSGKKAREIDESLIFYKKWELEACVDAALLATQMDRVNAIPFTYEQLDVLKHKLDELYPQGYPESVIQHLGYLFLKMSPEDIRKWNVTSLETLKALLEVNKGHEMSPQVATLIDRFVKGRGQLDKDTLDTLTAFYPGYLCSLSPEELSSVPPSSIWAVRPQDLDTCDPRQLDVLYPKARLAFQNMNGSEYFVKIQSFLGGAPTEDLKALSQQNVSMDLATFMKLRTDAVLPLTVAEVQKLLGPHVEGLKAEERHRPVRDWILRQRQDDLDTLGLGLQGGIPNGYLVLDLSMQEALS", "assay": "FACS on MiaPaCa-MSLN #2 cells, upper histogram and table", "values": [
      {"binder": "B8", "Mean, FL2-H": 2280},
      {"binder": "B3", "Mean, FL2-H": 2280},
      {"binder": "B9", "Mean, FL2-H": 2880}
    ]},
    {"target": "T1, recombinant human mesothelin (MSLN)", "assay": "SPR, Biacore T-200; MSLN amine-coupled to CM5 chip, IgG in flow", "remark": "another data set of the same source", "procedure": "Quantitative binding force (affinity) of the purified anti-MSLN antibodies, i.e., MI323, MI329, MI403, MS502 clone antibodies with regard to recombinant human mesothelin (MSLN) was measured by using a Biacore T-200 (GE Healthcare, U.S.A.) biosensor. […] Then, […] serially diluted with HBS-EP buffer (10 mM HEPES, pH7.4, 150 mM NaCl, 3 mM EDTA, 0.005% surfactant P20) was allowed to flow at a concentration range of 0.078 nM to 5 nM and at a flow rate of 30 μL/min for association of 120 seconds and dissociation of 1800 seconds. The dissociation of the antibody bound to the MSLN was induced by flowing 10 mM Glycine-HCl pH 1.5 at a flow rate of 30 μL/min for 30 seconds (Table 7). The affinity was obtained as movement speed constants (Kₒₙ and Koff) and an equilibrium dissociation constant (KD) by using a Biacore T-200 evaluation software (Table 8).", "units": {"Kd": "nM"}, "values": [
      {"binder": "B10", "Kd": 0.035},
      {"binder": "B8", "Kd": 0.23},
      {"binder": "B11", "Kd": 0.45},
      {"binder": "B9", "Kd": 0.18}
    ]},
    {"target": "T1, recombinant human mesothelin (MSLN)", "assay": "ELISA, clone supernatant on MSLN-coated plate", "procedure": "Single colonies of a phage display synthetic scFv library final amplified population were collected, and cultured with 1.5 mL of SB/carbenicillin to an OD₆₀₀ of 0.8 to 1.0 at 37° C. and at 220 rpm, and then cultured with 1 mM IPTG at 30° C. and at 200 rpm for 12 hours or more. The reaction materials were centrifuged at 5500 rpm for 5 minutes, and only each supernatant was added to ELISA plates containing underlying MSLN antigen, and reacted at room temperature for 2 hours. Then, the resultant materials were washed with PBST (1×PBS, 0.05% tween 20) four times, and HRP/Anti-hFab-HRP conjugate diluted by 1/5000 with 1% BSA/1×PBS was added thereto, and reacted at room temperature for 1 hour, and washed with PBST (1×PBS, 0.05% tween 20) 4 times. Then, a TMB solution was added thereto and reacted for 5 to 10 minutes, and a TMB stop solution was added thereto. Next, O.D values were measured at a measurement wavelength of 450 nm using a TECAN sunrise, and clones having high O.D. value were secured as individual clones.", "values": [
      {"binder": "B12", "binding result": "binds"},
      {"binder": "B13", "binding result": "binds"},
      {"binder": "B14", "binding result": "binds"},
      {"binder": "B15", "binding result": "binds"},
      {"binder": "B16", "binding result": "binds"}
    ]},
    {"target": "T2, human mesothelin (MSLN) on the cell …", "assay": "FACS on MSLN stable cell line (#2), left panels; sheet note: 1st Ab 1 µg (1st assay), 2nd Ab anti-human Fc antibody FITC", "procedure": "FACS test was performed on the MSLN present in the cell surface with regard to MiaPaCa-MSLN which is a cell line in which the MSLN was artificially expressed. Cells to be analyzed that were grown in a culture dish were separated by adding a Tryple Express solution and stored in a 50 mL tube, followed by centrifugation at 2000 rpm at room temperature for 3 minutes to decant the culture fluid, and the obtained product was washed once with PBS. The cells were suspended with FACS buffer, and transferred to a round bottom tube and centrifuged at 2000 rpm at room temperature for 3 minutes. The supernatant was discarded and the cells were well-loosened with the FACS buffer so as to have a cell density of 4×10⁵/mL. Then, 1 μg of candidate antibody was added thereto at 4° C. After 1 hour, the resultant material was washed with the FACS buffer twice, and goat-derived anti-human IgG antibody (FITC junction) was added in an amount of 1 μL for each sample to be combined at 4° C. for 30 minutes. The cells were collected by centrifugation at 2000 rpm for 3 minutes, and 500 μL of fixation buffer was added to resuspend the cells, and the cells were measured by FACS calibur (FIG. 6).\nThe FACS test was performed to evaluate whether the anti-MSLN antibody was selectively bound to the MSLN-overexpressing cell line (MiaPaCa-MSLN #2). The anti-MSLN candidate antibody was labeled by the method described in Example 4-2 above, and the cells were measured by FACS calibur (FIG. 7).", "values": [
      {"binder": "B10", "Mean, FL1-H": 410},
      {"binder": "B8", "Mean, FL1-H": 293},
      {"binder": "B17", "Mean, FL1-H": 181},
      {"binder": "B18", "Mean, FL1-H": 225},
      {"binder": "B11", "Mean, FL1-H": 250},
      {"binder": "B9", "Mean, FL1-H": 419}
    ]}
  ]
}
